Assay results: US20180319873A1 (TAIPEI MEDICAL UNIVERSITY, published 2018)

T1: His-CaENO1 (recombinant Candida albicans alpha-enolase with His tag) (Candida albicans, UniProt P30575 1-440)
T1 construct: Expressed from pQE30-CaENO1 in E. coli BL21, purified on Ni resin, about 49 kDa; also called recombinant CaENO1 protein; purified CaENO1; not shown: His tag from the pQE30 vector
T1 sequence (looked up): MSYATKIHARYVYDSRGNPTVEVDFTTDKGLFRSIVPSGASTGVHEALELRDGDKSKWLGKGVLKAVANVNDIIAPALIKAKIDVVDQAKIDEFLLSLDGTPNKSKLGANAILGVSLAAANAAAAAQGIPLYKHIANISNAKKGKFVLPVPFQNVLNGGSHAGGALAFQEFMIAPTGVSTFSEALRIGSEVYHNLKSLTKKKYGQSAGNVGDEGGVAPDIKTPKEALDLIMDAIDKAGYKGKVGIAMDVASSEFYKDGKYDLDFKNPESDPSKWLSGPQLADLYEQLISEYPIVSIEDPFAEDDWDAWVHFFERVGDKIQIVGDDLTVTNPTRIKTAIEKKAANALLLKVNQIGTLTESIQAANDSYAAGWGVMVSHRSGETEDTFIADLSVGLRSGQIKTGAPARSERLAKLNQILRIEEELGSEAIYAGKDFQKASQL

B1: CaS1 scFv (anti-CaENO1 scFv monoclonal antibody) (scFv)
scFv: ALTQPSSVSANLGGTVKITCSGGSGSYGWYQQKSPGSAPVTVIYSNNQRPSNIPSRFSGSPSGSTGTLTITGVQADDEAVYFCGSRDSSYVGVFGAGTTLTVLGQSSRSSTVTLDESGGGLQTPRGALSLVCKASGFTFIDYGMQWVRQAPGKGLEWVAGIGSSGSSTNYGAAVKGRATISRDDGQSTVRLQLNNLRAEDTGTYYCAKSAGGYCVNGAGCNGGSIDAWGHGTEVIVSS
notes: Chicken scFv from a phage library in pComb3X, expressed in E. coli, purified on Ni Sepharose; also called scFv CaS1; His-CaS1 scFv; not shown: His tag (and HA tag) from the pComb3X vector

Assays:
[1] = target: native CaENO1 of Candida albicans (alpha-enolase on the cell surface and in cell lysates) (Candida albicans) (UniProt P30575); test: flow cytometry on C. albicans SC 5314 cells, 100 ug antibody (negative control)
[2] = target: T2, mENO1 (purified recombinant mouse ENO1) (mouse, UniProt P17182 1-434, limits assumed); test: Western blot on purified ENO1 proteins
T2 construct: not shown: His tag, 'expressed and purified in the same way' as His-CaENO1
T2 sequence (P17182 whole entry): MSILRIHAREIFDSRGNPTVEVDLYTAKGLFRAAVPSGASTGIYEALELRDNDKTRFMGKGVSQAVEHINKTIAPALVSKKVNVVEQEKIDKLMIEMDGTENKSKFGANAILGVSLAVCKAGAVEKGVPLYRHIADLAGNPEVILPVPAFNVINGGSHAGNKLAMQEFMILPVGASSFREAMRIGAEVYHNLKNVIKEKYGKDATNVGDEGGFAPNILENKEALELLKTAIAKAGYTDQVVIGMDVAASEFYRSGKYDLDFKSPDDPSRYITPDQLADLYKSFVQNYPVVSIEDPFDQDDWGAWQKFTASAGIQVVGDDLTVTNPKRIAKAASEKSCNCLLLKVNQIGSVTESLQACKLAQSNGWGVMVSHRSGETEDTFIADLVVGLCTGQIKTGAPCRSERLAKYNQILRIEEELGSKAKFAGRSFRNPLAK

[3] = target: T3, hENO1 (purified recombinant human ENO1) (human, UniProt P06733 1-434, limits assumed); test: Western blot on purified ENO1 proteins
T3 construct: not shown: His tag, 'expressed and purified in the same way' as His-CaENO1
T3 sequence (P06733 whole entry): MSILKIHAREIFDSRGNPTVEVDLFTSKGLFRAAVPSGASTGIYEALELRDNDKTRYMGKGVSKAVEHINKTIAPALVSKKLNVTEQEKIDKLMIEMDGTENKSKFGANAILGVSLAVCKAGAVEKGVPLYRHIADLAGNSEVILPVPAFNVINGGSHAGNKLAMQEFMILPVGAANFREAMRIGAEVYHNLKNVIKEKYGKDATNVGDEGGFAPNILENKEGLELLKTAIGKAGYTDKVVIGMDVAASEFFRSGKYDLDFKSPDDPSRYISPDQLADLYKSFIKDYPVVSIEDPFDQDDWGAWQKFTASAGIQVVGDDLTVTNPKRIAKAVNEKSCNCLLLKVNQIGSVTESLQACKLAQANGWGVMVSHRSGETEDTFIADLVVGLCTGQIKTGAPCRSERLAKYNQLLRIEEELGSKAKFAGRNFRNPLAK

[4] = target: T1, His-CaENO1 (recombinant Candida …); test: ELISA, serial dilution of CaS1 scFv on coated His-CaENO1
[5] = target: T1, His-CaENO1 (recombinant Candida …); test: ELISA, serial dilution of CaS1 scFv on coated recombinant CaENO1; concentration at 50% of OD
[6] = target: T1, His-CaENO1 (recombinant Candida …); test: competitive ELISA, serial dilution of free CaENO1 mixed with 1 µg/mL CaS1 scFv, then added to coated CaENO1; printed as KD of CaS1 scFv
[7] = target: T1, His-CaENO1 (recombinant Candida …); test: competitive ELISA, serial dilution of free His-CaENO1 mixed with 1 µg/mL CaS1, then added to coated His-CaENO1; printed as KD of CaS1 scFv

Row | Molecule | % FITC fluorescence reaction [1] [%] | binding result [2] | binding result [3] | Kd [4] [nM] | Kd [5] [µg/mL] | Kd [6] [µg/mL] | Kd [7] [nM]
1 | control scFv (irrelevant scFv) | 23 |  |  |  |  |  | 
2 | B1 |  | binds | binds | 18.8 | 0.498 | 4.45 | 89
